Experimental findings from the supplement of paper PMC12855868 are described below.

To fix the notation:
B1: library; numbered along this chain (parent)
chain: MAAAGGARLLRAASAVLGGPAGRWLHHAGSRAGSSGLLRNRGPGGSAEASRSLSVSARARSSSEDKITVHFINRDGETLTTKGKVGDSLLDVVVENNLDIDGFGACEGTLACSTCHLIFEDHIYEKLDAITDEENDMLDLAYGLTDRSRLGCQICLTKSMDNMTVRVPETVADARQSIDVGKTS

The data set covers variants of B1. Put plainly: scaled log2 fold change in cell abundance, elesclomol vs control (0 = silent mean, 1 = nonsense mean) (scaled log2 ratio); higher = higher viability under elesclomol (loss of FDX1 cuproptosis function). As to conditions: glucose 10 mM. On the procedure:
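Deep mutational scan of full-length human FDX1: a pooled saturation-mutagenesis ORF library (every residue 2-184 mutated to all 19 amino acids plus stop, and silent codons where available) was expressed by lentivirus in FDX1-knockout ABC1 (14 days) or HEK293T (11 days) cells grown with elesclomol (ES) or DMSO control. Variant abundance came from ORF sequencing. The log2 fold change (ES vs control, mean of duplicates) was centred on the silent-variant mean (0) and scaled to the nonsense-variant mean (1). Higher values mean greater viability under ES, i.e. loss of FDX1 function in cuproptosis.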

Setting [1] is: with ABC1 FDX1 KO, elesclomol 5 nM, 14 days.
Where [2] appears, read: with HEK293T FDX1 KO, elesclomol 40 nM, 11 days.
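Further: variant abundance is its share of total variant reads in each endpoint sample, from next-generation sequencing of the integrated ORF PCR-amplified out of genomic DNA.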

Turning to MAAAGGARLLRAASAVLGGPAGRWLHHAGSRAGSSGLLRNRGPGGSAEASRSLSVHARARSSSEDKITVHFINRDGETLTTKGKVGDSLLDVVVENNLDIDGFGACEGTLACSTCHLIFEDHIYEKLDAITDEENDMLDLAYGLTDRSRLGCQICLTKSMDNMTVRVPETVADARQSIDVGKTS [S56H], the “scaled log2 fold change” value came out at 0.238 under setting [1] and 0.979 under setting [2].
MAAAGGARLLRAASAVLGGPAGRWLHHAGSRAGSSGLLRNRGPGGSAEASRSLSVGARARSSSEDKITVHFINRDGETLTTKGKVGDSLLDVVVENNLDIDGFGACEGTLACSTCHLIFEDHIYEKLDAITDEENDMLDLAYGLTDRSRLGCQICLTKSMDNMTVRVPETVADARQSIDVGKTS [S56G]: the “scaled log2 fold change” value was -1.11 under setting [1] and 0.888 under setting [2].
MAAAGGARLLRAASAVLGGPAGRWLHHAGSRAGSSGLLRNRGPGGSAEASRSLSVKARARSSSEDKITVHFINRDGETLTTKGKVGDSLLDVVVENNLDIDGFGACEGTLACSTCHLIFEDHIYEKLDAITDEENDMLDLAYGLTDRSRLGCQICLTKSMDNMTVRVPETVADARQSIDVGKTS [S56K]: the “scaled log2 fold change” value under setting [1] was -0.052 and the “scaled log2 fold change” value under setting [2] was found to be 0.357.
With MAAAGGARLLRAASAVLGGPAGRWLHHAGSRAGSSGLLRNRGPGGSAEASRSLSVFARARSSSEDKITVHFINRDGETLTTKGKVGDSLLDVVVENNLDIDGFGACEGTLACSTCHLIFEDHIYEKLDAITDEENDMLDLAYGLTDRSRLGCQICLTKSMDNMTVRVPETVADARQSIDVGKTS [S56F], the “scaled log2 fold change” value under setting [1] is 0.177.
Consider MAAAGGARLLRAASAVLGGPAGRWLHHAGSRAGSSGLLRNRGPGGSAEASRSLSVNARARSSSEDKITVHFINRDGETLTTKGKVGDSLLDVVVENNLDIDGFGACEGTLACSTCHLIFEDHIYEKLDAITDEENDMLDLAYGLTDRSRLGCQICLTKSMDNMTVRVPETVADARQSIDVGKTS [S56N], for which the “scaled log2 fold change” value is, setting by setting: under setting [1], 0.0549; under setting [2], 1.09.
Taken in the same sequence, the figures for MAAAGGARLLRAASAVLGGPAGRWLHHAGSRAGSSGLLRNRGPGGSAEASRSLSVEARARSSSEDKITVHFINRDGETLTTKGKVGDSLLDVVVENNLDIDGFGACEGTLACSTCHLIFEDHIYEKLDAITDEENDMLDLAYGLTDRSRLGCQICLTKSMDNMTVRVPETVADARQSIDVGKTS [S56E] were 0.234 and 0.0723.
Taken in the same sequence, the figures for MAAAGGARLLRAASAVLGGPAGRWLHHAGSRAGSSGLLRNRGPGGSAEASRSLSVMARARSSSEDKITVHFINRDGETLTTKGKVGDSLLDVVVENNLDIDGFGACEGTLACSTCHLIFEDHIYEKLDAITDEENDMLDLAYGLTDRSRLGCQICLTKSMDNMTVRVPETVADARQSIDVGKTS [S56M] were -0.109 and 0.0191.
MAAAGGARLLRAASAVLGGPAGRWLHHAGSRAGSSGLLRNRGPGGSAEASRSLSVLARARSSSEDKITVHFINRDGETLTTKGKVGDSLLDVVVENNLDIDGFGACEGTLACSTCHLIFEDHIYEKLDAITDEENDMLDLAYGLTDRSRLGCQICLTKSMDNMTVRVPETVADARQSIDVGKTS [S56L]: the “scaled log2 fold change” value stood at 0.557 under setting [1] and 1.06 under setting [2].
On the same counts, the results for MAAAGGARLLRAASAVLGGPAGRWLHHAGSRAGSSGLLRNRGPGGSAEASRSLSVIARARSSSEDKITVHFINRDGETLTTKGKVGDSLLDVVVENNLDIDGFGACEGTLACSTCHLIFEDHIYEKLDAITDEENDMLDLAYGLTDRSRLGCQICLTKSMDNMTVRVPETVADARQSIDVGKTS [S56I] are -0.125 and -0.305.
